The assay concerns the target human MCU-EMRE fusion protein (hME) (human).

In the case of “MICU1EF (MICU1 with D231A, E242K, D421A, E432K), N-terminally MBP-tagged (from UniProt Q9BPX6 34-476) (natural protein)”, the time constant of the decay of hME Ca2+ current on perfusion of 10 μM MICU1EF is 44 s.

Source of the values: doi:10.1101/2021.11.15.468501.
